PMC7703624 (Proceedings of the National Academy of Sciences of the …, 2020)
Where a SMILES comes first, the peptide text is derived from it.

Assays:
ENAH EVH1 [1] = biological target: T1, ENAH EVH1 (Homo sapiens, UniProt Q8N8S7); assay: other fluorescence titration
Target sequence in this assay (Q8N8S7 whole entry): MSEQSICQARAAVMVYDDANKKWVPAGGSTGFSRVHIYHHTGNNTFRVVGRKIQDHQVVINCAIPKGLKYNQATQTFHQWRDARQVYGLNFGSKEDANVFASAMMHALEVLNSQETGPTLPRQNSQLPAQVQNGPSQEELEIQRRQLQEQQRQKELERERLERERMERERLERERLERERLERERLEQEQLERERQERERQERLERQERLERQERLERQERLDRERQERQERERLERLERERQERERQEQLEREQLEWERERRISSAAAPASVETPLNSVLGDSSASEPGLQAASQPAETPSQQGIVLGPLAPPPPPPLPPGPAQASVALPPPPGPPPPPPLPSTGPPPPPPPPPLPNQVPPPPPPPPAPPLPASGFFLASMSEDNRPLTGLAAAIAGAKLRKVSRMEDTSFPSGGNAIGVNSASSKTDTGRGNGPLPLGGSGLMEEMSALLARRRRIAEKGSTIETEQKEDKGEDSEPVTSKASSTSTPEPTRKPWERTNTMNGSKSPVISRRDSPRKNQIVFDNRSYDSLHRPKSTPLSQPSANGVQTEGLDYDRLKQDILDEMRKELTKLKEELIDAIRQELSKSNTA

ENAH EVH1 [2] = biological target: T1, ENAH EVH1; assay: Fluorescence titration; assay type: binding
Fyn SH3 = Fyn SH3 (Homo sapiens, UniProt P06241); assay: Pulldown of GST-Fyn SH3 from Jurkat cell lysate, displacement of ADAP; assay type: binding; conditions: Jurkat cell lysate 1 mg/ml, 50 µM active concentration
Sequence of Fyn SH3 (P06241 82-143 limits assumed): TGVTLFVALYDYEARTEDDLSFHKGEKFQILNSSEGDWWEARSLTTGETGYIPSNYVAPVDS

Molecule | Kd (ENAH EVH1 [1]) | other results
2ΔC, Ac-SFE[2-Cl-Phe][ProM-2][ProM-1]-OEt (peptide) | 2900 nM | –
2ΔN, Ac-[2-Cl-Phe][ProM-2][ProM-1]TEDEL-NH2 (peptide) | 330 nM | –
CCOC(=O)[C@@H]1CCCN1C(=O)[C@@H]1CCCN1C(=O)[C@@H]1CCCN1C(=O)[C@@H]1CCCN1C(=O)[C@H](Cc1ccccc1)NC(C)=O [wt1, Ac–FPPPP–OEt] (Ac-FPPPP-OEt) | – | Kd (ENAH EVH1 [2]): 153000 nM
Ac-RPLPPLP-NH2 [Ac–RPLPPLP −NH2] | – | displacement of ADAP from bead-bound GST-Fyn SH3 (Fyn SH3): displaced ADAP
chimeric peptide 2, Ac-SFE[2-Cl-Phe][ProM-2][ProM-1]TEDEL-NH2 | 150 nM | –
Ac-SFEFPPPPTEDEL-NH2 [wt2, Ac-…-NH2] | 13000 nM | –
